Target: T1, PTK7 (on intact CCRF-CEM cells) (human (CCRF-CEM, T cell acute lymphoblastic leukemia)) (UniProt Q13308)
T1 sequence: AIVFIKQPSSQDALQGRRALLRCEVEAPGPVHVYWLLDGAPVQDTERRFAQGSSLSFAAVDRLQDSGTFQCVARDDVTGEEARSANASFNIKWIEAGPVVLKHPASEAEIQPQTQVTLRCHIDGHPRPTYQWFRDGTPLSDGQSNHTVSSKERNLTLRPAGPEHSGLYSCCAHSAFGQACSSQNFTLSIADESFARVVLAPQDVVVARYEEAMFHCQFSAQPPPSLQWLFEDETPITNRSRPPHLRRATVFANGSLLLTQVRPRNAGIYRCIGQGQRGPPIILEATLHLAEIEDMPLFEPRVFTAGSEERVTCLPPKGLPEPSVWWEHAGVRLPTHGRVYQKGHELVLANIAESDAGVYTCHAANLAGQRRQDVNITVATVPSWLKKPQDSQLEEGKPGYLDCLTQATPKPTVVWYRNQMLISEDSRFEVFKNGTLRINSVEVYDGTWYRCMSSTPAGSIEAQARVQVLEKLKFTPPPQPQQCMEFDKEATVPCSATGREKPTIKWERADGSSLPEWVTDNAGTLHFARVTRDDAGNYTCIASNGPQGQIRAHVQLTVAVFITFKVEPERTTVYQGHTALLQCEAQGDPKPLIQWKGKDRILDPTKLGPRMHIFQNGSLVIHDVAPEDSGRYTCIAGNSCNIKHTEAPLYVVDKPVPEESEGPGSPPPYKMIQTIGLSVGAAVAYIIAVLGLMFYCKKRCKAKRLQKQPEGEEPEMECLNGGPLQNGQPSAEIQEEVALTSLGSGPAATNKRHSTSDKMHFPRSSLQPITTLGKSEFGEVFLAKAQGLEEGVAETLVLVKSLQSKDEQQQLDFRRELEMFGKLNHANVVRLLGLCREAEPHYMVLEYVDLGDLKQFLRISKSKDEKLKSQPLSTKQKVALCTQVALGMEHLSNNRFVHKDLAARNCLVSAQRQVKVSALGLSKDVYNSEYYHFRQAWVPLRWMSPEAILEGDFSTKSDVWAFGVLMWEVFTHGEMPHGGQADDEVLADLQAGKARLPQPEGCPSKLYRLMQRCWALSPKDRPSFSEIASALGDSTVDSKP
Experiment: flow cytometry, CCRF-CEM cells
Details: apparent Kd on cells, 1x PBS, 0.55 mM MgCl2, pH 7.4, 200 uL, 1e5 cells, 30 min in the dark at room temperature (Methods; Results say on ice)

TATGTCTCGAGTATTTTTATCTAACTGCTGCGCCGCCGGGAAAATACTGTACGGTTAGA / GACCGATGGATGACCTGTCTGCCTAATGTGCGTCGTAAG / GACCGATGGATGACTTACGACGCACAAGGAGATCATGAG / GACCGATGGATGACTCATGATCTCCTTTAGGCAGACAGG / GAAGCCACTCTGACCTGTCTGCCTAATGTGCGTCGTAAG / GAAGCCACTCTGACTTACGACGCACAAGGAGATCATGAG / TCATCCATCGGTCCTCATGATCTCCTTTAGGCAGACAGG / GACACACTGAGGTCCTGTCTGCCTAATGTGCGTCGTAAG / GACACACTGAGGTCTTACGACGCACAAGGAGATCATGAG / TCAGAGTGGCTTCCTCATGATCTCCTTTAGGCAGACAGG / TACTCGAGACATACCTGTCTGCCTAATGTGCGTCGTAAG / TACTCGAGACATACTTACGACGCACAAGGAGATCATGAG / ACCTCAGTGTGTCCTCATGATCTCCTTTAGGCAGACAGG [G3-sgc8 DNA dendrimer]
Kd (multivalent): 0.07 nM

ATCTAACTGCTGCGCCGCCGGGAAAATACTGTACGGTTAGA [free sgc8]
Kd: 2.95 nM
